In the supplement of paper PMC9876800:

What follows are substances tested on peptide library, one residue held at a place counted from the S/T acceptor (assay: relative phosphorylation of the sub-library (ratio to the mean residue at this position); human; higher = residue favoured). Conditions: pThr fixed; at -4.
Summary of the method: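 Spots on streptavidin membranes were phosphorimaged and quantified by densitometry to measure phosphorylation of biotinylated degenerate peptide sub-libraries by purified recombinant kinases, human or orthologue constructs. The reactions ran in 384-well plates for 90 min under kinase-specific conditions, with peptides at 50 μM and 50 μM ATP spiked with γ-32P-ATP. Relative sub-library phosphorylation is the ratio to the mean residue at that position.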

Sequence of CSNK1A1L, construct: Full length (Q8N752 whole entry, looked up): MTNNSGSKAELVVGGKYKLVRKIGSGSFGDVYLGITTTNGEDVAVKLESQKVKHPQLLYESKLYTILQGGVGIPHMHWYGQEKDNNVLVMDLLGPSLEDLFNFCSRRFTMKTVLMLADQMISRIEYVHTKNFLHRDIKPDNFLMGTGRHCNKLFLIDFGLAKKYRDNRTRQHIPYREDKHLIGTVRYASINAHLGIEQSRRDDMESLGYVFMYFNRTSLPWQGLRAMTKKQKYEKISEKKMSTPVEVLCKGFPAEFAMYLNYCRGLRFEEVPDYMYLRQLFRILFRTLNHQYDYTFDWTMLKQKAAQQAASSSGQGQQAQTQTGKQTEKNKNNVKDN
Sequence of CIT, construct: aa1-449 (O14578 1-449, looked up): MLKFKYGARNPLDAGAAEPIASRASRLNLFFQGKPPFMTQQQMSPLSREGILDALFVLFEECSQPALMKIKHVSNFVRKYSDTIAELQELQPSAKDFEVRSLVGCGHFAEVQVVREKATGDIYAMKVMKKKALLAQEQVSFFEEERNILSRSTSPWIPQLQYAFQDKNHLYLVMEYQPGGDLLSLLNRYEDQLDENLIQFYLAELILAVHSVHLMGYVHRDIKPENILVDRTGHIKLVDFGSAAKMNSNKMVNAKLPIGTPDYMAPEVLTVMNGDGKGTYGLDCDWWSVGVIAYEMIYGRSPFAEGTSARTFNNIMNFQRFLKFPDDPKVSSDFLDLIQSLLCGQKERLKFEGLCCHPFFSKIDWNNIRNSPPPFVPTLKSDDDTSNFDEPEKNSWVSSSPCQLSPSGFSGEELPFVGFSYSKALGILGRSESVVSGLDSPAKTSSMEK
Sequence of CSNK1G3, construct: Full length (Q9Y6M4 whole entry, looked up): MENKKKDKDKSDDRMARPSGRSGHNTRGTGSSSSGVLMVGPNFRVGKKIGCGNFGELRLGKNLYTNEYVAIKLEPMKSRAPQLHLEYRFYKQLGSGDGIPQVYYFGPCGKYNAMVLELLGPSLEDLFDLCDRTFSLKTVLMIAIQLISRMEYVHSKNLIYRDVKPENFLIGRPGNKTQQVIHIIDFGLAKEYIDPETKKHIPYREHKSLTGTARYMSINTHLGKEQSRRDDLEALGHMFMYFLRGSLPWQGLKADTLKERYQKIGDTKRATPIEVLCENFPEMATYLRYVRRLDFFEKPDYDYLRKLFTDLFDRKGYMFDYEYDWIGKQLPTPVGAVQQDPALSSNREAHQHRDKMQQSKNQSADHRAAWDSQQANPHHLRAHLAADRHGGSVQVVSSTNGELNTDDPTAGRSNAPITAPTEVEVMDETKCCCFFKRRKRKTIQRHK
Sequence of PAK1, construct: aa150-end (Q13153 150-545, looked up): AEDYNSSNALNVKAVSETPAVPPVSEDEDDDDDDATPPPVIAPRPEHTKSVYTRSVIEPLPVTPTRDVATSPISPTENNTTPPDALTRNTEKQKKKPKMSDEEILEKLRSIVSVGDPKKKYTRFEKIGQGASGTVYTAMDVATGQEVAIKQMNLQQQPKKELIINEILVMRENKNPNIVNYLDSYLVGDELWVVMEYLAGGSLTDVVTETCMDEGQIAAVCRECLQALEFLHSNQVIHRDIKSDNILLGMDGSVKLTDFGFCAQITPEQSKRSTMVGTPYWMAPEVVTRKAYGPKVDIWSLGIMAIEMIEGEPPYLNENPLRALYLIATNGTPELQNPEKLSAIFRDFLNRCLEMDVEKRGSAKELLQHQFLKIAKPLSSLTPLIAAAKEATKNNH
Sequence of CAMK2D, construct: Full length (Q13557 whole entry, looked up): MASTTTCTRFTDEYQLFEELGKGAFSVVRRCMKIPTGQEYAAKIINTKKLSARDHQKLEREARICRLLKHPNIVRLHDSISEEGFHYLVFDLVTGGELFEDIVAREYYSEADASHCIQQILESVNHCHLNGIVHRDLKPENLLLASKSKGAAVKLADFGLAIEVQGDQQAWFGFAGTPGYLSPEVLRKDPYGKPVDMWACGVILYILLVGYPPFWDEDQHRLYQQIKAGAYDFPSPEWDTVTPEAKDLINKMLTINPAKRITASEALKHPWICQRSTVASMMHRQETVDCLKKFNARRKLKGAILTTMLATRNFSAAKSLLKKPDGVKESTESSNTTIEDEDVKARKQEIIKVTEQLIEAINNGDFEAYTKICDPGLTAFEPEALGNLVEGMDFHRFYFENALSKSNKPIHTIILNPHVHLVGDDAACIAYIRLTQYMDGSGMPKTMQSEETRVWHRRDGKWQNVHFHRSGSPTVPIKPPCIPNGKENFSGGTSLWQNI
Sequence of TSSK1B, construct: Full length (Q9BXA7 whole entry, looked up): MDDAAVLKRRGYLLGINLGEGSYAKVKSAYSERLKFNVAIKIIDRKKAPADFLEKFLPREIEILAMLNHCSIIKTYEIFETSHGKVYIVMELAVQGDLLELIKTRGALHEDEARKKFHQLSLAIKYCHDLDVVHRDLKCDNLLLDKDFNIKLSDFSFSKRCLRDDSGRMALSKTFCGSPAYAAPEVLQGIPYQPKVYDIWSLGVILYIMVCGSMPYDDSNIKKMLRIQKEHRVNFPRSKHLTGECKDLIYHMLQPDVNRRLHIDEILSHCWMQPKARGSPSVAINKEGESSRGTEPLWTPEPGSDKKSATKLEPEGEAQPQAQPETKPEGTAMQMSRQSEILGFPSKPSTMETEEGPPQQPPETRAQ
Sequence of ACVR1B, construct: aa150-end (P36896 150-505, looked up): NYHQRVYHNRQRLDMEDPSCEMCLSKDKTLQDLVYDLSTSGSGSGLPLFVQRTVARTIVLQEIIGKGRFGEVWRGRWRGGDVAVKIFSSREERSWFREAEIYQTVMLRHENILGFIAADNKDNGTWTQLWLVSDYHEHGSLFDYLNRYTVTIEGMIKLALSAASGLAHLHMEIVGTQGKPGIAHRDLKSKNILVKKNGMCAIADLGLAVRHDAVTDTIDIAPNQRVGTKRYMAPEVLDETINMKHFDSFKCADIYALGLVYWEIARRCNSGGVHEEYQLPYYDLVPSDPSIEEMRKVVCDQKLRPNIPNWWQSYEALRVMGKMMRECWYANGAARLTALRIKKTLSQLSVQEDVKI
Sequence of CDKL1, construct: aa2-304 (Q00532 2-304, looked up): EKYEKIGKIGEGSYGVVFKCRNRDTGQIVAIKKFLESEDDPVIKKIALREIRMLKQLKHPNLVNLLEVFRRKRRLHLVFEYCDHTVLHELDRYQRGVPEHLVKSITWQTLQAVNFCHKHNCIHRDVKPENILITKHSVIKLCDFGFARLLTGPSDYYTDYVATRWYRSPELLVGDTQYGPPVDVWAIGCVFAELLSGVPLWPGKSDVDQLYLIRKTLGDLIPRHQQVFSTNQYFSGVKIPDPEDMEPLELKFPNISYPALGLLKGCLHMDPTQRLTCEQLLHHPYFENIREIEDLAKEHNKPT

| Substance | relative phosphorylation |
| --- | --- |
| CAMK2D, construct: Full length (from UniProt Q13557) | 0.653 |
| CDKL1, construct: aa2-304 (from UniProt Q00532) | 0.837 |
| ACVR1B, construct: aa150-end (from UniProt P36896) | 0.896 |
| TSSK1B, construct: Full length (from UniProt Q9BXA7) | 0.596 |
| CSNK1A1L, construct: Full length (from UniProt Q8N752) | 5.13 |
| CSNK1G3, construct: Full length (from UniProt Q9Y6M4) | 10.2 |

Same assay, conditions: pThr fixed; at -5

| Substance | relative phosphorylation |
| --- | --- |
| CIT, construct: aa1-449 (from UniProt O14578) | 0.405 |
| PAK1, construct: aa150-end (from UniProt Q13153) | 0.666 |
| CAMK2D, construct: Full length (from UniProt Q13557) | 0.605 |
| CDKL1, construct: aa2-304 (from UniProt Q00532) | 0.737 |
| ACVR1B, construct: aa150-end (from UniProt P36896) | 1.1 |
| TSSK1B, construct: Full length (from UniProt Q9BXA7) | 0.457 |
| CSNK1A1L, construct: Full length (from UniProt Q8N752) | 1.56 |
| CSNK1G3, construct: Full length (from UniProt Q9Y6M4) | 4.37 |

Same assay, conditions: pTyr fixed; at +1

| Substance | relative phosphorylation |
| --- | --- |
| CIT, construct: aa1-449 (from UniProt O14578) | 0.784 |
| PAK1, construct: aa150-end (from UniProt Q13153) | 0.886 |
| CAMK2D, construct: Full length (from UniProt Q13557) | 0.872 |
| CDKL1, construct: aa2-304 (from UniProt Q00532) | 0.652 |
| ACVR1B, construct: aa150-end (from UniProt P36896) | 3.57 |
| TSSK1B, construct: Full length (from UniProt Q9BXA7) | 0.793 |
| CSNK1A1L, construct: Full length (from UniProt Q8N752) | 1.26 |
| CSNK1G3, construct: Full length (from UniProt Q9Y6M4) | 1.13 |

Same assay, conditions: pTyr fixed; at +2

| Substance | relative phosphorylation |
| --- | --- |
| CIT, construct: aa1-449 (from UniProt O14578) | 0.65 |
| PAK1, construct: aa150-end (from UniProt Q13153) | 4.31 |
| CAMK2D, construct: Full length (from UniProt Q13557) | 3.27 |
| CDKL1, construct: aa2-304 (from UniProt Q00532) | 0.663 |
| ACVR1B, construct: aa150-end (from UniProt P36896) | 1.77 |
| TSSK1B, construct: Full length (from UniProt Q9BXA7) | 0.437 |
| CSNK1A1L, construct: Full length (from UniProt Q8N752) | 2.63 |
| CSNK1G3, construct: Full length (from UniProt Q9Y6M4) | 5.14 |

Same assay, conditions: pTyr fixed; at +3

| Substance | relative phosphorylation |
| --- | --- |
| CIT, construct: aa1-449 (from UniProt O14578) | 0.802 |
| PAK1, construct: aa150-end (from UniProt Q13153) | 1.28 |
| CAMK2D, construct: Full length (from UniProt Q13557) | 1.12 |
| CDKL1, construct: aa2-304 (from UniProt Q00532) | 0.733 |
| ACVR1B, construct: aa150-end (from UniProt P36896) | 1.28 |
| TSSK1B, construct: Full length (from UniProt Q9BXA7) | 0.381 |
| CSNK1A1L, construct: Full length (from UniProt Q8N752) | 3.97 |
| CSNK1G3, construct: Full length (from UniProt Q9Y6M4) | 9.54 |

Same assay, conditions: pTyr fixed; at +4

| Substance | relative phosphorylation |
| --- | --- |
| CIT, construct: aa1-449 (from UniProt O14578) | 0.925 |
| PAK1, construct: aa150-end (from UniProt Q13153) | 1.09 |
| CAMK2D, construct: Full length (from UniProt Q13557) | 1.45 |
| CDKL1, construct: aa2-304 (from UniProt Q00532) | 0.692 |
| ACVR1B, construct: aa150-end (from UniProt P36896) | 1.51 |
| TSSK1B, construct: Full length (from UniProt Q9BXA7) | 0.396 |
| CSNK1A1L, construct: Full length (from UniProt Q8N752) | 2.06 |
| CSNK1G3, construct: Full length (from UniProt Q9Y6M4) | 2.97 |

Same assay, conditions: pTyr fixed; at -1

| Substance | relative phosphorylation |
| --- | --- |
| CIT, construct: aa1-449 (from UniProt O14578) | 0.34 |
| PAK1, construct: aa150-end (from UniProt Q13153) | 0.672 |
| CAMK2D, construct: Full length (from UniProt Q13557) | 0.933 |
| CDKL1, construct: aa2-304 (from UniProt Q00532) | 0.717 |
| ACVR1B, construct: aa150-end (from UniProt P36896) | 1.27 |
| TSSK1B, construct: Full length (from UniProt Q9BXA7) | 0.445 |
| CSNK1A1L, construct: Full length (from UniProt Q8N752) | 1.5 |
| CSNK1G3, construct: Full length (from UniProt Q9Y6M4) | 0.797 |

Same assay, conditions: pTyr fixed; at -2

| Substance | relative phosphorylation |
| --- | --- |
| CIT, construct: aa1-449 (from UniProt O14578) | 0.333 |
| PAK1, construct: aa150-end (from UniProt Q13153) | 0.392 |
| CAMK2D, construct: Full length (from UniProt Q13557) | 0.349 |
| CDKL1, construct: aa2-304 (from UniProt Q00532) | 0.75 |
| ACVR1B, construct: aa150-end (from UniProt P36896) | 0.679 |
| TSSK1B, construct: Full length (from UniProt Q9BXA7) | 0.326 |
| CSNK1A1L, construct: Full length (from UniProt Q8N752) | 1.78 |
| CSNK1G3, construct: Full length (from UniProt Q9Y6M4) | 1.85 |

Same assay, conditions: pTyr fixed; at -3

| Substance | relative phosphorylation |
| --- | --- |
| CIT, construct: aa1-449 (from UniProt O14578) | 0.226 |
| PAK1, construct: aa150-end (from UniProt Q13153) | 0.853 |
| CAMK2D, construct: Full length (from UniProt Q13557) | 0.424 |
| CDKL1, construct: aa2-304 (from UniProt Q00532) | 0.786 |
| ACVR1B, construct: aa150-end (from UniProt P36896) | 1.02 |
| TSSK1B, construct: Full length (from UniProt Q9BXA7) | 0.424 |
| CSNK1A1L, construct: Full length (from UniProt Q8N752) | 2.99 |
| CSNK1G3, construct: Full length (from UniProt Q9Y6M4) | 12.1 |

Same assay, conditions: pTyr fixed; at -4

| Substance | relative phosphorylation |
| --- | --- |
| CIT, construct: aa1-449 (from UniProt O14578) | 0.395 |
| PAK1, construct: aa150-end (from UniProt Q13153) | 0.808 |
| CAMK2D, construct: Full length (from UniProt Q13557) | 0.609 |
| CDKL1, construct: aa2-304 (from UniProt Q00532) | 0.876 |
| ACVR1B, construct: aa150-end (from UniProt P36896) | 1.26 |
| TSSK1B, construct: Full length (from UniProt Q9BXA7) | 0.432 |
| CSNK1A1L, construct: Full length (from UniProt Q8N752) | 4.32 |
| CSNK1G3, construct: Full length (from UniProt Q9Y6M4) | 5.93 |

Same assay, conditions: pTyr fixed; at -5

| Substance | relative phosphorylation |
| --- | --- |
| CIT, construct: aa1-449 (from UniProt O14578) | 0.554 |
| PAK1, construct: aa150-end (from UniProt Q13153) | 0.675 |
| CAMK2D, construct: Full length (from UniProt Q13557) | 0.606 |
| CDKL1, construct: aa2-304 (from UniProt Q00532) | 0.726 |
| ACVR1B, construct: aa150-end (from UniProt P36896) | 1.03 |
| TSSK1B, construct: Full length (from UniProt Q9BXA7) | 0.65 |
| CSNK1A1L, construct: Full length (from UniProt Q8N752) | 1.93 |
| CSNK1G3, construct: Full length (from UniProt Q9Y6M4) | 2.97 |
